B1: TNNI2 (parent)
chain: DWRKNIEEKSGMEGRKKMFESES

Variants of: B1
Test: protein stability index of a GFP-peptide fusion (GPS, HEK-293T) (PSI 1-6); higher = more stable
Conditions: c terminus: native
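Further: lentivirally expressed fusions sorted by FACS into six bins by GFP to DsRed ratio, PSI derived from sequencing read proportions per bin multiplied by bin number.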

In order of rising protein stability index:
1. MWRKNIEEKSGMEGRKKMFESES [D1M]  1.57
2. DWGKNIEEKSGMEGRKKMFESES [R3G]  1.61
3. DWRKYIEEKSGMEGRKKMFESES [N5Y]  1.62
4. DWYKNIEEKSGMEGRKKMFESES [R3Y]  1.64
5. DWRKWIEEKSGMEGRKKMFESES [N5W]  1.64
6. DWLKNIEEKSGMEGRKKMFESES [R3L]  1.74
7. CWRKNIEEKSGMEGRKKMFESES [D1C]  1.75
8. SWRKNIEEKSGMEGRKKMFESES [D1S]  1.79
9. DWPKNIEEKSGMEGRKKMFESES [R3P]  1.84
10. FWRKNIEEKSGMEGRKKMFESES [D1F]  1.9
11. LWRKNIEEKSGMEGRKKMFESES [D1L]  1.9
12. DWRKDIEEKSGMEGRKKMFESES [N5D]  1.94
13. DKRKNIEEKSGMEGRKKMFESES [W2K]  1.95
14. KWRKNIEEKSGMEGRKKMFESES [D1K]  2.01
15. DWSKNIEEKSGMEGRKKMFESES [R3S]  2.04
16. DWRKVIEEKSGMEGRKKMFESES [N5V]  2.04
17. DWFKNIEEKSGMEGRKKMFESES [R3F]  2.06
18. DWRKHIEEKSGMEGRKKMFESES [N5H]  2.07
19. DWVKNIEEKSGMEGRKKMFESES [R3V]  2.08
20. DWAKNIEEKSGMEGRKKMFESES [R3A]  2.09
21. DWRKNHEEKSGMEGRKKMFESES [I6H]  2.12
22. DWRINIEEKSGMEGRKKMFESES [K4I]  2.13
23. DWRWNIEEKSGMEGRKKMFESES [K4W]  2.13
24. DWIKNIEEKSGMEGRKKMFESES [R3I]  2.19
25. DWRKNKEEKSGMEGRKKMFESES [I6K]  2.23
26. YWRKNIEEKSGMEGRKKMFESES [D1Y]  2.24
27. DNRKNIEEKSGMEGRKKMFESES [W2N]  2.25
28. HWRKNIEEKSGMEGRKKMFESES [D1H]  2.27
29. GWRKNIEEKSGMEGRKKMFESES [D1G]  2.28
30. DWRKEIEEKSGMEGRKKMFESES [N5E]  2.28
31. DWRKSIEEKSGMEGRKKMFESES [N5S]  2.31
32. DTRKNIEEKSGMEGRKKMFESES [W2T]  2.32
33. DWRCNIEEKSGMEGRKKMFESES [K4C]  2.32
34. DWRKIIEEKSGMEGRKKMFESES [N5I]  2.32
35. DWKKNIEEKSGMEGRKKMFESES [R3K]  2.34
36. TWRKNIEEKSGMEGRKKMFESES [D1T]  2.37
37. VWRKNIEEKSGMEGRKKMFESES [D1V]  2.37
38. DWRFNIEEKSGMEGRKKMFESES [K4F]  2.37
39. DWRKMIEEKSGMEGRKKMFESES [N5M]  2.37
40. DWRKNGEEKSGMEGRKKMFESES [I6G]  2.41
41. DWRKFIEEKSGMEGRKKMFESES [N5F]  2.43
42. DWEKNIEEKSGMEGRKKMFESES [R3E]  2.48
43. DWNKNIEEKSGMEGRKKMFESES [R3N]  2.48
44. DWTKNIEEKSGMEGRKKMFESES [R3T]  2.48
45. DWRKGIEEKSGMEGRKKMFESES [N5G]  2.5
46. DGRKNIEEKSGMEGRKKMFESES [W2G]  2.51
47. DWRKNMEEKSGMEGRKKMFESES [I6M]  2.52
48. DIRKNIEEKSGMEGRKKMFESES [W2I]  2.53
49. DWRKNCEEKSGMEGRKKMFESES [I6C]  2.54
50. DWRKNNEEKSGMEGRKKMFESES [I6N]  2.54
51. DFRKNIEEKSGMEGRKKMFESES [W2F]  2.55
52. DWRYNIEEKSGMEGRKKMFESES [K4Y]  2.56
53. PWRKNIEEKSGMEGRKKMFESES [D1P]  2.57
54. DWRKLIEEKSGMEGRKKMFESES [N5L]  2.57
55. DWRENIEEKSGMEGRKKMFESES [K4E]  2.59
56. DWRKNAEEKSGMEGRKKMFESES [I6A]  2.59
57. DWRPNIEEKSGMEGRKKMFESES [K4P]  2.61
58. DWRHNIEEKSGMEGRKKMFESES [K4H]  2.62
59. IWRKNIEEKSGMEGRKKMFESES [D1I]  2.63
60. DWDKNIEEKSGMEGRKKMFESES [R3D]  2.63
61. QWRKNIEEKSGMEGRKKMFESES [D1Q]  2.65
62. DSRKNIEEKSGMEGRKKMFESES [W2S]  2.69
63. DWRKCIEEKSGMEGRKKMFESES [N5C]  2.7
64. DWRKQIEEKSGMEGRKKMFESES [N5Q]  2.72
65. NWRKNIEEKSGMEGRKKMFESES [D1N]  2.79
66. RWRKNIEEKSGMEGRKKMFESES [D1R]  2.79
67. DWRLNIEEKSGMEGRKKMFESES [K4L]  2.82
68. DWQKNIEEKSGMEGRKKMFESES [R3Q]  2.84
69. DLRKNIEEKSGMEGRKKMFESES [W2L]  2.85
70. DCRKNIEEKSGMEGRKKMFESES [W2C]  2.88
71. DWHKNIEEKSGMEGRKKMFESES [R3H]  2.88
72. AWRKNIEEKSGMEGRKKMFESES [D1A]  2.91
73. DYRKNIEEKSGMEGRKKMFESES [W2Y]  2.93
74. DHRKNIEEKSGMEGRKKMFESES [W2H]  2.95
75. DWRKRIEEKSGMEGRKKMFESES [N5R]  2.95
76. DVRKNIEEKSGMEGRKKMFESES [W2V]  2.96
77. DWRTNIEEKSGMEGRKKMFESES [K4T]  2.98
78. DWRGNIEEKSGMEGRKKMFESES [K4G]  3.03
79. DWRSNIEEKSGMEGRKKMFESES [K4S]  3.03
80. WWRKNIEEKSGMEGRKKMFESES [D1W]  3.07
81. DMRKNIEEKSGMEGRKKMFESES [W2M]  3.08
82. DDRKNIEEKSGMEGRKKMFESES [W2D]  3.12
83. DWRVNIEEKSGMEGRKKMFESES [K4V]  3.15
84. DWRQNIEEKSGMEGRKKMFESES [K4Q]  3.21
85. DWRDNIEEKSGMEGRKKMFESES [K4D]  3.23
86. DWRNNIEEKSGMEGRKKMFESES [K4N]  3.23
87. DERKNIEEKSGMEGRKKMFESES [W2E]  3.25
88. DWRKNQEEKSGMEGRKKMFESES [I6Q]  3.26
89. DWMKNIEEKSGMEGRKKMFESES [R3M]  3.28
90. DWRMNIEEKSGMEGRKKMFESES [K4M]  3.39
91. DWRKTIEEKSGMEGRKKMFESES [N5T]  3.41
92. DPRKNIEEKSGMEGRKKMFESES [W2P]  3.59
93. DWRANIEEKSGMEGRKKMFESES [K4A]  3.61
94. DQRKNIEEKSGMEGRKKMFESES [W2Q]  3.67
95. DWRKNPEEKSGMEGRKKMFESES [I6P]  3.72
96. DWRKAIEEKSGMEGRKKMFESES [N5A]  3.79
97. DWRKPIEEKSGMEGRKKMFESES [N5P]  3.97

— the supplement of paper PMC10567573
